# Source: patent US20120328616A1 (Amgen, published 2012)
# T1: huBeta_Klotho (1-301, 509-743, 967-1044) (muBeta KLOTHO 302-506, 742-964) (human; murine, UniProt Q86Z14 1-1044)
# T1 construct: also called Chimera 14; Construct 14
# T1 chain: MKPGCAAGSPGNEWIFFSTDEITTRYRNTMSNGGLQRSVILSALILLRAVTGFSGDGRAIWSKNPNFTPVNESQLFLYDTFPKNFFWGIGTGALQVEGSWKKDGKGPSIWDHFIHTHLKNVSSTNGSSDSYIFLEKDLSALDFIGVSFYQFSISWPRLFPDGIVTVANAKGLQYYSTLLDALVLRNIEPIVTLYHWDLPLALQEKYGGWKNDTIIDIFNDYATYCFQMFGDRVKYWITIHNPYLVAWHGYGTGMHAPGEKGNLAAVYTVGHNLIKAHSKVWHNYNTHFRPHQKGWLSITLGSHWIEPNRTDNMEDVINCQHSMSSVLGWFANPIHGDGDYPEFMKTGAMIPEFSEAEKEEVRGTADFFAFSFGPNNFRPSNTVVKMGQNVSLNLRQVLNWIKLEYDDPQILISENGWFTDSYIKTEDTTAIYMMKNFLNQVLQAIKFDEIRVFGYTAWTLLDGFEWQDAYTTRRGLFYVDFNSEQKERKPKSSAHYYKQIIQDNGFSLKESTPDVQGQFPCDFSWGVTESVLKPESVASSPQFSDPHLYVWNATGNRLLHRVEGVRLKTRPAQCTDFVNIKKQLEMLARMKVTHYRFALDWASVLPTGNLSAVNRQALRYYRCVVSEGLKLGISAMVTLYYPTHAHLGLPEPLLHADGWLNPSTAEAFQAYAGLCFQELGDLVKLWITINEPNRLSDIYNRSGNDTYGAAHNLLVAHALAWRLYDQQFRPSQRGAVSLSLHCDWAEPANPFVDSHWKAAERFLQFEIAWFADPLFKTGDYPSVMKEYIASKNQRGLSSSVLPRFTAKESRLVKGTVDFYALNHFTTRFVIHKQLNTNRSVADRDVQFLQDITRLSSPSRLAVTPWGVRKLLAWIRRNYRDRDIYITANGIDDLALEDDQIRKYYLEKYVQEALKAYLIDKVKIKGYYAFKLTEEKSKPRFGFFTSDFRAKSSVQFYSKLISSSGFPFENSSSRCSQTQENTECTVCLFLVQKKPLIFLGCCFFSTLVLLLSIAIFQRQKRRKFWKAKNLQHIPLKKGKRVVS
# T2: murine β-Klotho (murine, UniProt Q99N32 1-1043)
# T2 construct: Full length (GenBank NP-112457), transiently expressed on HEK-293T cells; also called mu β-klotho; mouse β-Klotho
# T2 sequence: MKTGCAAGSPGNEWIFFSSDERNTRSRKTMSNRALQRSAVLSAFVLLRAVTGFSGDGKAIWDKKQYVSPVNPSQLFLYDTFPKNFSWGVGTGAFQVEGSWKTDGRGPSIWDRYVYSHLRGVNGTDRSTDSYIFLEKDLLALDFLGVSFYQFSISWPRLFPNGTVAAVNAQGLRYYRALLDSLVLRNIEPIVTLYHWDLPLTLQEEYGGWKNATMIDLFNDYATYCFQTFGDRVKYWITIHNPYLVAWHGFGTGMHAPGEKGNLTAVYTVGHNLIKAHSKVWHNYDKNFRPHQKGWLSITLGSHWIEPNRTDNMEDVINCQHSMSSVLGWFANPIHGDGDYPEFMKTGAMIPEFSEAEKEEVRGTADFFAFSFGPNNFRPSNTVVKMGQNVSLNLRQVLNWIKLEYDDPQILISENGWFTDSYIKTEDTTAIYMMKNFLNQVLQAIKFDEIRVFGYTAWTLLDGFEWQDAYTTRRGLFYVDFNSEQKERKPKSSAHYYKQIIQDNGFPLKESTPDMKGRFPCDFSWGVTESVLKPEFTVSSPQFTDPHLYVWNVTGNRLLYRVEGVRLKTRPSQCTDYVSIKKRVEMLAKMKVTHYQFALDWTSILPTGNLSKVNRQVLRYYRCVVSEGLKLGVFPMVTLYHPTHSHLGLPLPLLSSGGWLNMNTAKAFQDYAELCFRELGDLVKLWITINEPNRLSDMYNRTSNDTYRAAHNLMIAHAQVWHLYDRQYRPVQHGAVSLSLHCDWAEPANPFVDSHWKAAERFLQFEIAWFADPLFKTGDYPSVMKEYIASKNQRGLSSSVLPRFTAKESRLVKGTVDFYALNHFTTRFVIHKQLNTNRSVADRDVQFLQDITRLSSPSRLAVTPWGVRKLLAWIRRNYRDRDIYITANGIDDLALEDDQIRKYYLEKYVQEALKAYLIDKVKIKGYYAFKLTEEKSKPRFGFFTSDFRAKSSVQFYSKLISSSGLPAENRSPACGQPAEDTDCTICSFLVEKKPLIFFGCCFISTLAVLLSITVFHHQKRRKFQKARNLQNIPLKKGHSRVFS
# B1: 54A1.1 (antibody, V domains shown)
# VH: QVQLVQSGAEVKKPGASVKVSCKASGYTFTSYDINWVRQATGQGLEWMGWMNPHSGNTGYAQKFQGRVTMTRNTSINTAYMELSSLRSEDTAVYYCAKYNWNYGAFDFWGQGTMVTVSS
# VL: DIQMAQSPSSLSASVGDRVTITCQASQDISIYLNWYQLKPGKAPKLLIYDVSNLETGVPSRFSGGGSGTDFTFTISSLQPEDIATYYCQQYDNLPLTFGPGTKVDIKR
# What was measured:
# [1] = target: T1, huBeta_Klotho (1-301, 509-743, …); assay: flow cytometry, transfected HEK-293T
# [2] = target: T3, huBeta_Klotho (1-633, 852-1044) (muBeta KLOTHO 632G-849Q) (human; murine, UniProt Q86Z14 1-1044); assay: flow cytometry, transfected HEK-293T
# T3 construct: also called Chimera 10; Construct 10
# murine β-Klotho = target: T2, murine β-Klotho; assay: flow cytometry, transfected HEK-293T
# [3] = target: T4, huBeta_Klotho (1-507) (muBetaKLOTHO 506F-1045S) (human; murine, UniProt Q99N32 1-1043); assay: flow cytometry, transfected HEK-293T
# T4 construct: also called Chimera 2; Construct 2
# [4] = target: T5, huBeta_Klotho (1-736, 967-1044) (muBeta KLOTHO 735A-963S) (human; murine, UniProt Q86Z14 1-1044); assay: flow cytometry, transfected HEK-293T
# T5 construct: also called Chimera 11; Construct 11
# human FGFR1c = target: T6, human FGFR1c (human, UniProt P11362 22-822); assay: flow cytometry, transfected HEK293T
# T6 construct: Full length (GenBank NP-075598), expressed on transfected 293T cells; also called huFGFR1c; FGFR1c alone
binder,measurement,setting,value
B1,binding result,[1],no binding
same,binding result,[2],binds
same,binding result,murine β-Klotho,no binding
same,binding result,[3],binds
same,binding result,[4],binds
same,binding result,human FGFR1c,no binding
